Measured values from patent US20230374151A1 (GlaxoSmithKline, published 2023).
Where “and” joins values, the source holds several entries; their conditions need not be identical. Equal values may be shown once.

Key:
[1] = molecular target: T1, MUC1 peptide (non-glycosylated), biotinylated (N-terminal Biotin-PEG2; C-terminal amide); assay: Octet BLI, biotinylated peptide on streptavidin sensors
T1 construct: also called 36-4; 7-36-4
T1 peptide: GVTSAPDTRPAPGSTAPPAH
Protocol: Biotinylated MUC1 peptide (7-36-4) and TnMUC1 peptide (7-36-2) were diluted to 10 μg/ml in Octet Running Buffer (1×PBSF) and loaded onto Octet SA (streptavidin) sensors. The positive control proteins were tested in the Octet assay at a single concentration of 500 nM. All humanised anti-Tn MUC1 scFv expression supernatants were assayed neat.
Data was analysed using the data acquisition software fortéBIO version 8.0.2.5 and the data analysis software fortéBIO version 8.0.2.3.

[2] = molecular target: T2, TnMUC1 peptide (fully glycosylated), biotinylated; assay: SPR (Biacore T200), peptide 36-2 on CAP chip, scFv as analyte, 1:1 fit; average
T2 construct: Two batches (36-2 and 65-1) of the same peptide; also called 36-2; 7-36-2
Protocol: (§1) Biotin CAPture Reagent was captured onto the active and reference flow cells for 300 seconds at 2 μl/min. The biotinylated peptides were diluted in BIAcore Running Buffer (as described above) and captured onto the active flow cell only, at a flow rate of 10 μl/min to obtain the capture level calculated in the equation detailed above.
(§2) The humanised anti-TnMUC1 scFv proteins were passed over the reference and active flow cells at 500, 125, 31.25, 7.8, 1.9, 0 nM for binding to TnMUC1 and MUC1 peptides with a 300 second association followed by a 900 seconds dissociation with BIAcore Running Buffer at a flow rate of 30 μl/min.
(§3) BIAcore T200 Evaluation Software v3.0 was used to analyse the data. The data obtained has been fitted to a 1:1 binding model with the Rmax parameter set to local. As this is a capture experiment, a local Rmax parameter would be truly reflective as the protein is recaptured every time and theoretically surface is slightly different at each recapture, possibly producing slightly different capture each time. Kinetic Parameters (KD, kd and kₐ) were calculated for all the humanised anti-TnMUC1 scFv proteins.

[3] = molecular target: T2, TnMUC1 peptide (fully glycosylated), …; assay: SPR (Biacore T200), peptide 36-2 on CAP chip, scFv as analyte, 1:1 fit; average, restated in nM
Protocol: as §1, §2, §3

[4] = molecular target: T2, TnMUC1 peptide (fully glycosylated), …; assay: SPR (Biacore T200), peptide 36-2 on CAP chip, scFv as analyte, 1:1 fit; single run
Protocol: as §1, §2, §3

[5] = molecular target: T1, MUC1 peptide (non-glycosylated), …; assay: SPR (Biacore T200), biotinylated peptide on CAP chip, scFv as analyte

B1: humanised anti-TnMUC1 scFv H3-L3, VH-VL orientation (construct 6D25) (scFv)
scFv: QVQLVQSGAEVKKPGSSVKVSCKASGYTFTDHAIHWVRQAPGQGLEWMGHFSPGNTDIKYNDKFKGRVTITADKSTSTAYMELSSLRSEDTAVYYCKTSTFFFDYWGQGTTVTVSSGGGGSGGGGSGGGGSGGGGSELVMTQSPDSLAVSLGERATINCKSSQSLLNSGDQKNYLTWYQQKPGQPPKLLIFWASTRESGVPDRFSGSGSGTDFTLTISSLQAEDVAVYYCQNDYSYPLTFGQGTKLEIKAAAHHHHHHH
[1]
  binding result: no binding (tested: neat supernatant)

B2: humanised anti-TnMUC1 scFv protein 9P1 (88A), VL-VH humanised control (scFv)
scFv: DIVMTQSPDSLAVSLGERATINCKSSQSLLNSGDQKNYLTWYQQKPGQPPKLLIYWASTRESGVPDRFSGSGSGTDFTLTISSLQAEDVAVYYCQNDYSYPLTFGQGTKVEIKGGGGSGGGGSGGGGSGGGGSQVQLVQSGAEVKKTGSSVKVSCKASGYTFTDHAIHWVRQAPGQALEWMGHFSPGNTDIKYNDKFKGRVTLTVDRSMSTAYMELSSLRSEDTAMYYCKTSTFFFDYWGQGTMVTVSSAAAHHHHHH
notes: Control scFv designed from a humanised antibody of WO2015/159076 (10D2 is said to come from Ab2, so 10D1 by implication from Ab1); Neat supernatant of construct 10D1 in the Octet assay; purified protein 9P1 in Biacore and flow cytometry; also called 10D1
[1]
  binding result: no binding (tested: neat supernatant)
[2]
  Kd: 23 nM
  koff: 0.00156 s⁻¹
  kon: 67800 M⁻¹ s⁻¹
[3]
  Kd: 23 nM
[4]
  Kd: 22.8 nM and 23.3 nM
  koff: 0.00157 s⁻¹ and 0.00153 s⁻¹
  kon: 68800 M⁻¹ s⁻¹ and 65900 M⁻¹ s⁻¹

B3: humanised anti-TnMUC1 scFv protein 13P24 (77A), L3-H5 (scFv)
scFv: ELVMTQSPDSLAVSLGERATINCKSSQSLLNSGDQKNYLTWYQQKPGQPPKLLIFWASTRESGVPDRFSGSGSGTDFTLTISSLQAEDVAVYYCQNDYSYPLTFGQGTKLEIKGGGGSGGGGSGGGGSGGGGSQVQLVQSGAEVKKPGSSVKVSCKASGYTFTDHAIHWVRQAPGQGLEWIGHFSPGNTDIKYNDKFKGRATLTVDRSTSTAYMELSSLRSEDTAVYFCKTSTFFFDYWGQGTTVTVSSAAAHHHHHH
notes: Two purification lots (13P24, 28P24); also called 28P24; 6D24
[5]
  binding result: no binding (tested: 500 nM)
[2]
  Kd: 46.4 nM
  koff: 0.00133 s⁻¹
  kon: 28700 M⁻¹ s⁻¹
[3]
  Kd: 46.4 nM
[4]
  Kd: 46.4 nM
  koff: 0.00133 s⁻¹
  kon: 28700 M⁻¹ s⁻¹

B4: humanised anti-TnMUC1 scFv L2-H1 (construct 6D14) (scFv)
scFv: DIVMTQSPDSLAVSLGERATINCKSSQSLLNSGDQKNYLTWYQQKPGQPPKLLIFWASTRESGVPDRFSGSGSGTDFTLTISSLQAEDVAVYYCQNDYSYPLTFGQGTKLEIKGGGGSGGGGSGGGGSGGGGSQVQLVQSGAEVKKPGSSVKVSCKASGYTFTDHAIHWVRQAPGQGLEWMGHFSPGNTDIKYNDKFKGRVTITADKSTSTAYMELSSLRSEDTAVYYCARSTFFFDYWGQGTTVTVSSAAAHHHHHH
[1]
  binding result: no binding (tested: neat supernatant)

B5: humanised anti-TnMUC1 scFv L0-H2 (construct 6D3) (scFv)
scFv: DIVMTQSPDSLAVSLGERATINCKSSQSLLNSGDQKNYLTWYQQKPGQPPKLLIYWASTRESGVPDRFSGSGSGTDFTLTISSLQAEDVAVYYCQNDYSYPLTFGQGTKLEIKGGGGSGGGGSGGGGSGGGGSQVQLVQSGAEVKKPGSSVKVSCKASGYTFTDHAIHWVRQAPGQGLEWIGHFSPGNTDIKYNDKFKGRATLTVDRSTSTAYMELSSLRSEDTAVYYCARSTFFFDYWGQGTTVTVSSAAAHHHHHH
[1]
  binding result: no binding (tested: neat supernatant)

B6: humanised anti-TnMUC1 scFv L0-H1 (construct 6D2) (scFv)
scFv: DIVMTQSPDSLAVSLGERATINCKSSQSLLNSGDQKNYLTWYQQKPGQPPKLLIYWASTRESGVPDRFSGSGSGTDFTLTISSLQAEDVAVYYCQNDYSYPLTFGQGTKLEIKGGGGSGGGGSGGGGSGGGGSQVQLVQSGAEVKKPGSSVKVSCKASGYTFTDHAIHWVRQAPGQGLEWMGHFSPGNTDIKYNDKFKGRVTITADKSTSTAYMELSSLRSEDTAVYYCARSTFFFDYWGQGTTVTVSSAAAHHHHHH
[1]
  binding result: no binding (tested: neat supernatant)

B7: humanised anti-TnMUC1 scFv L1-H1 (construct 6D8) (scFv)
scFv: ELVMTQSPDSLAVSLGERATINCKSSQSLLNSGDQKNYLTWYQQKPGQPPKLLIYWASTRESGVPDRFSGSGSGTDFTLTISSLQAEDVAVYYCQNDYSYPLTFGQGTKLEIKGGGGSGGGGSGGGGSGGGGSQVQLVQSGAEVKKPGSSVKVSCKASGYTFTDHAIHWVRQAPGQGLEWMGHFSPGNTDIKYNDKFKGRVTITADKSTSTAYMELSSLRSEDTAVYYCARSTFFFDYWGQGTTVTVSSAAAHHHHHH
[1]
  binding result: no binding (tested: neat supernatant)

B8: humanised anti-TnMUC1 scFv L1-H2 (construct 6D9) (scFv)
scFv: ELVMTQSPDSLAVSLGERATINCKSSQSLLNSGDQKNYLTWYQQKPGQPPKLLIYWASTRESGVPDRFSGSGSGTDFTLTISSLQAEDVAVYYCQNDYSYPLTFGQGTKLEIKGGGGSGGGGSGGGGSGGGGSQVQLVQSGAEVKKPGSSVKVSCKASGYTFTDHAIHWVRQAPGQGLEWIGHFSPGNTDIKYNDKFKGRATLTVDRSTSTAYMELSSLRSEDTAVYYCARSTFFFDYWGQGTTVTVSSAAAHHHHHH
[1]
  binding result: no binding (tested: neat supernatant)

B9: humanised anti-TnMUC1 scFv L3-H3 (construct 6D22) (scFv)
scFv: ELVMTQSPDSLAVSLGERATINCKSSQSLLNSGDQKNYLTWYQQKPGQPPKLLIFWASTRESGVPDRFSGSGSGTDFTLTISSLQAEDVAVYYCQNDYSYPLTFGQGTKLEIKGGGGSGGGGSGGGGSGGGGSQVQLVQSGAEVKKPGSSVKVSCKASGYTFTDHAIHWVRQAPGQGLEWMGHFSPGNTDIKYNDKFKGRVTITADKSTSTAYMELSSLRSEDTAVYYCKTSTFFFDYWGQGTTVTVSSAAAHHHHHH
[1]
  binding result: no binding (tested: neat supernatant)

B10: humanised anti-TnMUC1 scFv L3-H4 (construct 6D23) (scFv)
scFv: ELVMTQSPDSLAVSLGERATINCKSSQSLLNSGDQKNYLTWYQQKPGQPPKLLIFWASTRESGVPDRFSGSGSGTDFTLTISSLQAEDVAVYYCQNDYSYPLTFGQGTKLEIKGGGGSGGGGSGGGGSGGGGSQVQLVQSGAEVKKPGSSVKVSCKASGYTFTDHAIHWVRQAPGQGLEWMGHFSPGNTDIKYNDKFKGRVTITADKSTSTAYMELSSLRSEDTAVYFCARSTFFFDYWGQGTTVTVSSAAAHHHHHH
[1]
  binding result: no binding (tested: neat supernatant)

B11: humanised anti-TnMUC1 scFv L0-H4 (construct 6D5) (scFv)
scFv: DIVMTQSPDSLAVSLGERATINCKSSQSLLNSGDQKNYLTWYQQKPGQPPKLLIYWASTRESGVPDRFSGSGSGTDFTLTISSLQAEDVAVYYCQNDYSYPLTFGQGTKLEIKGGGGSGGGGSGGGGSGGGGSQVQLVQSGAEVKKPGSSVKVSCKASGYTFTDHAIHWVRQAPGQGLEWMGHFSPGNTDIKYNDKFKGRVTITADKSTSTAYMELSSLRSEDTAVYFCARSTFFFDYWGQGTTVTVSSAAAHHHHHH
[1]
  binding result: no binding (tested: neat supernatant)

B12: humanised anti-TnMUC1 scFv L3-H1 (construct 6D20) (scFv)
scFv: ELVMTQSPDSLAVSLGERATINCKSSQSLLNSGDQKNYLTWYQQKPGQPPKLLIFWASTRESGVPDRFSGSGSGTDFTLTISSLQAEDVAVYYCQNDYSYPLTFGQGTKLEIKGGGGSGGGGSGGGGSGGGGSQVQLVQSGAEVKKPGSSVKVSCKASGYTFTDHAIHWVRQAPGQGLEWMGHFSPGNTDIKYNDKFKGRVTITADKSTSTAYMELSSLRSEDTAVYYCARSTFFFDYWGQGTTVTVSSAAAHHHHHH
[1]
  binding result: no binding (tested: neat supernatant)

B13: humanised anti-TnMUC1 scFv L2-H4 (construct 6D17) (scFv)
scFv: DIVMTQSPDSLAVSLGERATINCKSSQSLLNSGDQKNYLTWYQQKPGQPPKLLIFWASTRESGVPDRFSGSGSGTDFTLTISSLQAEDVAVYYCQNDYSYPLTFGQGTKLEIKGGGGSGGGGSGGGGSGGGGSQVQLVQSGAEVKKPGSSVKVSCKASGYTFTDHAIHWVRQAPGQGLEWMGHFSPGNTDIKYNDKFKGRVTITADKSTSTAYMELSSLRSEDTAVYFCARSTFFFDYWGQGTTVTVSSAAAHHHHHH
[1]
  binding result: no binding (tested: neat supernatant)

B14: humanised anti-TnMUC1 scFv L2-H2 (construct 6D15) (scFv)
scFv: DIVMTQSPDSLAVSLGERATINCKSSQSLLNSGDQKNYLTWYQQKPGQPPKLLIFWASTRESGVPDRFSGSGSGTDFTLTISSLQAEDVAVYYCQNDYSYPLTFGQGTKLEIKGGGGSGGGGSGGGGSGGGGSQVQLVQSGAEVKKPGSSVKVSCKASGYTFTDHAIHWVRQAPGQGLEWIGHFSPGNTDIKYNDKFKGRATLTVDRSTSTAYMELSSLRSEDTAVYYCARSTFFFDYWGQGTTVTVSSAAAHHHHHH
[1]
  binding result: no binding (tested: neat supernatant)

B15: humanised anti-TnMUC1 scFv L3-H2 (construct 6D21) (scFv)
scFv: ELVMTQSPDSLAVSLGERATINCKSSQSLLNSGDQKNYLTWYQQKPGQPPKLLIFWASTRESGVPDRFSGSGSGTDFTLTISSLQAEDVAVYYCQNDYSYPLTFGQGTKLEIKGGGGSGGGGSGGGGSGGGGSQVQLVQSGAEVKKPGSSVKVSCKASGYTFTDHAIHWVRQAPGQGLEWIGHFSPGNTDIKYNDKFKGRATLTVDRSTSTAYMELSSLRSEDTAVYYCARSTFFFDYWGQGTTVTVSSAAAHHHHHH
[1]
  binding result: no binding (tested: neat supernatant)
